Molecular target: integrin αIIb_W968C (human)
Test: cross-linking; disulfide between engineered cysteines in cells; S35-labelled CHO cells lysed, immunoprecipitated with anti-αIIb mAb 10E5 and protein G-Sepharose, SDS-PAGE with or without 2 mM DTT, radioautography

- efficiency of disulfide formation: 100%
Substance: integrin β3_I693C (from UniProt P05106 27-788) (natural protein)

From paper PMC4305291
